Mean STEM mass of the antibody complex particles data for 1 substance are collected here from patent US20090239215A1.

The target in the assay is MBP-MT2 fusion protein (maltose binding protein fused to two copies of metallothionein), without gold (mouse) (UniProt P02802). Kind of assay: STEM mass measurement (PCMass25); expected 260 kDa for the antibody with two MBP-MT2.
UniProt P02802, sequence (P02802 other isoform, or with tags, fused parts or gaps): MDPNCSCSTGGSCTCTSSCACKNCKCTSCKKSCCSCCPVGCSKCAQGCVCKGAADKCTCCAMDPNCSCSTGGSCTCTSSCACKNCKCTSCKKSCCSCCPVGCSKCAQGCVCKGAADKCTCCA

For “commercially available monoclonal IgG2a MBP antibody (New England Biolabs)”, the mean STEM mass of the antibody complex particles was determined as 205 kDa.
